Values of other authors, collected in patent US12653898B2, “Polyoxyethylene derivatives and conjugates thereof” (NATIONAL UNIVERSITY CORPORATION HOKKAIDO UNIVERSITY, priority 2023, dated 2026).
Read-outs that look alike come from different tables or passages of the source.

Conditions: under physiological conditions

B1: conjugate of bovine pancreas-derived ribonuclease A (RNase A) and compound 7: conjugate of RNase A and compound 7 (1-benzyl-1H-1,2,3-triazole-4-carbaldehyde) of WO 2020/175680 (conjugate, UniProt P61823 27-150, looked up)
Ribonuclease pancreatic: KETAAAKFERQHMDSSTSAASSSNYCNQMMKSRNLTKDRCKPVNTFVHESLADVQAVCSQKNVACKNGQTNCYQSYSTMSITDCRETGSSKYPNCAYKTTQANKHIIVACEGNPYVPVHFDASV
modifications: triazole carbaldehyde compound 7 conjugate
For B1, the degradation half-life (FIG. 54 of WO 2020/175680) is listed as 12 to 18 h and the degradation half-life (comparison value from WO 2020/175680) is listed as 12 to 18 h.
